Experimental data published in patent US20140363441A1 (priority 2013, published 2014).
Numbering of substitutions follows the chain as printed. Several values for one entry are separate records, joined by “and”; a condition that tells them apart may be missing. Identical values can stand only once. Entries after “also recorded” stand apart in the source; their conditions may differ.

B1: 8I10 (TCN-032) (antibody, V domains shown)
VH: QVQLQESGPGLVKPSETLSLTCTVSGSSISNYYWSWIRQSPGKGLEWIGFIYYGGNTKYNPSLKSRVTISQDTSKSQVSLTMSSVTAAESAVYFCARASCSGGYCILDYWGQGTLVTVS
VL: DIQMTQSPSSLSASVGDRVTITCRASQNIYKYLNWYQQRPGKAPKGLISAASGLQSGVPSRFSGSGSGTDFTLTITSLQPEDFATYYCQQSYSPPLTFGGGTRVEIK
B2: 23K12 (TCN-031) (antibody, V domains shown)
VH: EVQLVESGGGLVQPGGSLRISCAASGFTVSSNYMSWVRQAPGKGLEWVSVIYSGGSTYYADSVKGRFSFSRDNSKNTVFLQMNSLRAEDTAVYYCARCLSRMRGYGLDVWGQGTTVTVS
VL: DIQMTQSPSSLSASVGDRVTITCRTSQSISSYLNWYQQKPGKAPKLLIYAASSLQSGVPSRFSGSGSGTDFTLTISGLQPEDFATYYCQQSYSMPAFGQGTKLEIK
B3: 3241_G23 (antibody, V domains shown)
VH: QVQLQQSGPGLVKPSQTLSLTCTVSGGPVSGGGYSWNWIRQRPGQGLEWVGFMFHSGSPRYNPTLKSRITISVDTSKNLVSLKLSSVTAADTAVYFCARVGQMDKYYAMDVWGQGTTVTVSS
VL: DIQMTQSPSSLSSSVGDRVTITCRASQSIGAYVNWYQQKAGKAPQVLIFGASNLQSGVPSRFSGSGSGTDFTLTISSLQPEDFATYFCQQTYSTPITFGQGTRLEIK
B4: 3244_H04 (antibody, V domains shown)
VH: EVQLVESGGGLVQPGGSLRLSCTASGLSVSSTYMNWVRQAPGKGLEWVSVFYSETRTYYADSVKGRFTVSRHNSNNTLYLQMNSLRAEDTAVYYCARVQRLSYGMDVWGQGTTVTVSS
VL: DIQMTQSPSSLSASVGDRVTITCRASQSISTYLNWYQKRPGKAPKLLVYGASSLQSGVPSRFSGSGSGTDFTLTIASLQPEDSAVYYCQQTYSIPLFGQGTRLEIK
B5: 3136_G05 (antibody, V domains shown)
VH: QVQLQESGPGLVKPSETLSLTCSVSGGSISSDFWSWIRQPPGKGLEWIGYVYNRGSTKYSPSLKSRVTISADMSKNQFSLNMSSVTAADTAVYYCAKNGRSSTSWGIDVWGKGTTVTVSS
VL: DIQMTQSPSSLSASVGDRLTITCRASQSISTYLHWYQQKPGKAPKLLIYAASSLQSGVPSRFSGSRSGTDFTLTISSLQPDDFATYYCQQSYSPPLTFGPGTKVDMK
B6: 3252_C13 (antibody, V domains shown)
VH: QVQLQESGPGLVKPSETLSLTCTVSGASISSDYWSWIRLPPGKGLEWIGYIYNRGSTKYTPSLKSRVTISLDTAENQFSLRLRSVTAADTAIYYCARHVGGHTYGIDYWGQGTLVTVSS
VL: DIQMTQSPSSLSASVGDRVTITCRASQSISNYLNWYQHKPGEAPKLLNYAASSLQSGVPSRFSASGSGTDFTLTISSLQPEDFATYYCQQSYNTPITFGQGTRLEIK
B7: 3255_J06 (antibody, V domains shown)
VH: B6 VH with I92V
VL: B6 VL with T74S, S77G, Q100P
B8: 3420_I23 (antibody, V domains shown)
VH: QVQLQESGPGLVKPSETLSVTCKVSGDSISSYSWSWIRQPPGKGLEWVGYLYYSGSTKYNPSLKSRTTISVDTSTNQLSLKLSFVTAADTAVYFCARTGSESTTGYGMDVWGQGTTVTVSS
VL: B6 VL with N31T, H38Q, E42K, N48I, Q55H, A64G, T72A, N93S, T94P
B9: 3139_P23 (antibody, V domains shown)
VH: QVQLQESGPRLVKPSESLSLTCTVSGGSISNSFWGWIRQPPGEGLEWIGYVYNSGNTKYNPSLKSRVTISRDTSKSQLYMKLRSVTAADTAVYYCARHDDASHGYSISWGHGTLVTVSS
VL: DIQMTQSPSSLSASVGDRVTITCRASQTISTYLNWYQQKSGKAPKLLIYAASGLQSGVPSRFSGSGSGTDFTLTISSLQPEDFATYFCQQSYNTPLTFGQGTKVEIK
B10: 3248_P18 (antibody, V domains shown)
VH: QVQLQESGPGLVKPSETLSLTCTVSGGSISAYHWSWIRQPPGKGLEWIGHIFDSGSTYYNPSLKSRVTISLDASKNQLSLRLTSVTASDTAIYYCARPLGSRYYYGMDVWGQGTTVTVSS
VL: DIQMTQSPSSLSASVGDRVTITCRASQSISRYLNWYQQKPGKAPKLLIYGASTLQNGAPSRFSGSGSGTDFTLTISSLQPEDSATYLCQQSYSVPAFGGGTKVEVK
B11: 3253_P10 (antibody, V domains shown)
VH: QVQLQESGPGLLKPSDTLALTCTVSGGSITSDYWSWIRQPPGRGLDWIGFFYNGGSTKYNPSLKSRVTISADTSKNQLSLKLTSVTAADTGVYYCARHDAKFSGSYYVASWGQGTRVTVSS
VL: DIQMTQSPSSLSASVGDRVTISCRASQSISTYLNWYQQQPGKAPKVLISGATDLQSGVPSRFSGSGSGTDFTLTISSLQPEDFATYYCQQSYNTPLIFGQGTKLEIK
B12: 3260_D19 (antibody, V domains shown)
VH: DMQLVESGGGLVPPGGSLRLSCAASGFSVSDNYINWVRQAPGKGLDWVSVFYSADRTSYADSVKGRFTVSSHDSKNTVYLQMNSLRAEDTAVYYCARVQKSYYGMDVWGQGTTVTVSS
VL: GIQMTQSPSSLSASVGDRVTITCRASQSISRYLNWYLQKPGKAPKLLISGASSLQSGVPSRFSGTGSGTEFTLTISSLQPEDFATYYCQQTFSIPLFGQGTKVEIK
B13: 3362_B11 (antibody, V domains shown)
VH: QVQLQASGPGLVKPSETLSLTCTVSGDSITSGAYYWTWIRQHPGKGLEWIGYIYYSGNTYYNPSLKSRVTISLDTSKNQFSLKVNSVTAADTAVYYCARAASTSVLGYGMDVWGQGTTVTVSS
VL: B6 VL with N31R, H38Q, K39E, E42K, N48V, A64G, N93S, I96L
B14: 3244_I10 (antibody, V domains shown)
VH: B11 VH
VL: B11 VL with S49F, D53N
B15: 3242_P05 (antibody, V domains shown)
VH: B12 VH
VL: B12 VL
B16: 3243_J07 (antibody, V domains shown)
VH: B11 VH with A100V
VL: B11 VL with D53N
B17: 3259_J21 (antibody, V domains shown)
VH: QVQLQESGPRVVRPSETLSLTCTVSGGSISSYNWIWIRQPPGKGLEWIGHIYDYGRTFYNSSLQSRPTISVDASKNQLSLRLTSVTASDTAVYYCARPLGILHYYAMDLWGQGTTVTVSS
VL: DIQMTQSPLSVSVSVGDRVTIACRASQSIDKFLNWYQQKPGKAPKLLIYGASNLHSGAPSRFSASGSGTDFTLTITNIQTEDFATYLCQQSFSVPAFGGGTKVEIK
B18: 3245_O19 (antibody, V domains shown)
VH: B4 VH with A87V
VL: B4 VL with S53T, V85T

What was measured:
[1] = test system: H5N1 (A/Vietnam/1203/04); design: species or system balb/c mice; conditions: mouse, in vivo
[2] = test system: H5N1 (A/Vietnam/1203/04); design: species or system balb/c mice; conditions: mouse, in vivo; remark: listed apart in the source
[3] = target: influenza A/Puerto Rico/8/34 (PR8) virus particles (M2 protein on the virion) (influenza A virus H1N1 A/Puerto Rico/8/34) (UniProt P06821); assay: surface plasmon resonance, Fab fragment on influenza virus
[4] = target: influenza A/Puerto Rico/8/34 (PR8) virus particles (M2 protein on the virion) (influenza A virus H1N1 A/Puerto Rico/8/34) (UniProt P06821); assay: affinity of FAb fragments on whole PR8 virus
[5] = target: M2 protein of influenza A/Hong Kong/483/1997 (H5N1), expressed on cells (influenza A virus H5N1 A/Hong Kong/483/97)
[6] = target: HVIR1; assay: peptide ELISA, mAb 5 µg/mL

Molecule	MFI [5]	also measured
CCOC(=O)C1=C[C@@H](OC(CC)CC)[C@H](NC(C)=O)[C@@H](N)C1 [oseltamivir]	–	survival rate [1]: extinction of the population prior to the end of the therapy; percentage of weight remaining [2]: completely protected; also recorded: retained more weight
ch14C2 Fab fragment	–	Kd [3]: 4 µM; koff [3]: 0.0018 s⁻¹; kon [3]: 500 M⁻¹ s⁻¹; Kd [4]: 4 µM; koff [4]: 0.00286 s⁻¹; kon [4]: 500 M⁻¹ s⁻¹
B1	754 MFI and 1080 MFI	ELISA A450 [6]: 0.11
B2	–	ELISA A450 [6]: 0.21
B3	1700 MFI	–
B4	963 MFI	–
B5	109 MFI	–
B6	449 MFI	–
B7	442 MFI	–
B8	112 MFI	–
B9	110 MFI	–
B10	967 MFI	–
B11	43 MFI	–
B12	846 MFI	–
B13	218 MFI	–
B14	434 MFI	–
B15	596 MFI	–
B16	131 MFI	–
B17	1670 MFI	–
B18	919 MFI	–
